Assay results taken from paper PMC10404244.
pKd: −log10 of the molar value.

How the values were obtained:
[1] = target: tyrosinated microtubules polymerized from purified porcine brain tubulin (porcine) (UniProt P02550); experiment: single-molecule TIRF microscopy (landing rate, dwell time); tyrosinated and detyrosinated microtubules held in the chamber, single molecules of motors, 2 mM ADP, HP assay buffer pH 7.0
[2] = target: tyrosinated microtubules polymerized from purified porcine brain tubulin (porcine) (UniProt P02550); experiment: single-molecule TIRF microscopy (landing rate, processive motility); tyrosinated and detyrosinated microtubules held by biotin-streptavidin in the same chamber, motors at single-molecule concentrations, 2 mM ATP, HP assay buffer pH 7.0
[3] = target: tyrosinated microtubules polymerized from purified porcine brain tubulin (porcine) (UniProt P02550); experiment: TIRF microscopy microtubule-binding assay (mean fluorescence intensity); tyrosinated and detyrosinated microtubules held in the same chamber, 2 mM AMP-PNP, HP assay buffer pH 7.0
[4] = target: tyrosinated microtubules polymerized from purified porcine brain tubulin (porcine) (UniProt P02550); experiment: TIRF microscopy microtubule-binding assay (mean fluorescence intensity); tyrosinated and detyrosinated microtubules held in the same chamber, 2 mM ADP (Fig. 4C: 50 nM motor, 10 min), HP assay buffer pH 7.0
[5] = target: tyrosinated microtubules polymerized from purified porcine brain tubulin (porcine) (UniProt P02550); experiment: TIRF microscopy microtubule-binding assay (titration of fluorescence intensity); apparent; motor titrated 0.1–50 nM on held tyrosinated and detyrosinated microtubules, ADP; n = 160 MTs, N = 2
[6] = target: detyrosinated microtubules: porcine brain tubulin treated with carboxypeptidase A (CPA) (porcine) (UniProt P02550); experiment: as above
[7] = target: detyrosinated microtubules: porcine brain tubulin treated with carboxypeptidase A (CPA) (porcine) (UniProt P02550); experiment: TIRF microscopy microtubule-binding assay (mean fluorescence intensity); tyrosinated and detyrosinated microtubules held in the same chamber, 2 mM ADP (Fig. 4C: 50 nM motor, 10 min), HP assay buffer pH 7.0

Chain of human KIF13B CAP-Gly fragment (a.a. 1685–1826), N-terminal sfGFP-StrepII (Q9NQT8 1685-1826): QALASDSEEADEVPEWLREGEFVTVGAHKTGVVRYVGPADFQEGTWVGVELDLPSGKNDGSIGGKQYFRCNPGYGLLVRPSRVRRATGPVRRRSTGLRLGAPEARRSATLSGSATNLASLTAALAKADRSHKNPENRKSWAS

Row | fold dwell time, tyrosinated over detyrosinated microtubules (ADP) [1] [fold] | fold landing rate, tyrosinated over detyrosinated microtubules (ADP) [1] [fold] | fold landing rate, tyrosinated over detyrosinated microtubules (ATP) [2] [fold] | fold binding (fluorescence intensity), tyrosinated over detyrosinated microtubules, AMP-PNP [3] [fold] | fold binding (fluorescence intensity), tyrosinated over detyrosinated microtubules, ADP [4] [fold] | pKd [5] | pKd [6] | fold motor density on microtubules over KIF13B (50 nM, ADP) [4] [fold] | fold motor density on microtubules over KIF13B (50 nM, ADP) [7] [fold] | fold lower dwell time than full-length KIF13B or KIF13B^Δtail (tyrosinated microtubules, ADP) [1] [fold] | Substance
1 | 1.3 | 2 | 2 | 1.4 | 8 | – | – | – | – | – | full-length human KIF13B (wild type), C-terminal sfGFP-StrepII (from UniProt Q9NQT8 1-1826) (natural protein)
2 | 1.5 | 2 | 2 | – | 2 | 7.63 | 7.14 | 3 | 11 | – | full-length human KIF13B K414A, C-terminal sfGFP-StrepII (from UniProt Q9NQT8 1-1826) (natural protein)
3 | – | – | 2 | – | – | – | – | – | – | – | full-length human KIF13B V178Q, C-terminal sfGFP-StrepII (from UniProt Q9NQT8 1-1826) (natural protein)
4 | – | 14 | – | – | – | – | – | – | – | 2 to 3 | human KIF13B CAP-Gly fragment (a.a. 1685–1826), N-terminal sfGFP-StrepII (from UniProt Q9NQT8 1685-1826) (domain or fragment)
